Experimental data taken from patent US20060140929A1 (Merck KGaA, published 2006).
Where a chain is given by its changes, count along the chain named. Numbers in names are those of the source.

B1: hirudin mutein M 37 (L13T) (other)
chain: VVYTDCTESGQNTCLCEGSVVCGQGNKCILGSDGEKNQCVTGEGTPKPESHNDGDFEEIPEEYLQ
B2: hirudin mutein M 49 (V21R) (other)
chain: B1 chain with T13L, V21R
B3: hirudin mutein M 80 (D53R) (other)
chain: B1 chain with T13L, D53R
B4: hirudin mutein M 17 (I29D L30Q) (other)
chain: B1 chain with T13L, I29D, L30Q
B5: hirudin mutein M 70 (L30R) (other)
chain: B1 chain with T13L, L30R
B6: hirudin mutein M 62 (L30D) (other)
chain: B1 chain with T13L, L30D
B7: hirudin mutein M 21 (I29E L30R) (other)
chain: B1 chain with T13L, I29E, L30R
B8: hirudin mutein M 19 (I29E L30K) (other)
chain: B1 chain with T13L, I29E, L30K
B9: hirudin mutein M 1 (I29A L30A) (other)
chain: B1 chain with T13L, I29A, L30A
B10: hirudin mutein M 40 (L15Q) (other)
chain: B1 chain with T13L, L15Q
B11: hirudin mutein M 51 (I29D) (other)
chain: B1 chain with T13L, I29D
B12: hirudin mutein M 57 (I29Q) (other)
chain: B1 chain with T13L, I29Q
B13: hirudin mutein M 52 (I29E) (other)
chain: B1 chain with T13L, I29E
B14: hirudin mutein M 77 (P48T) (other)
chain: B1 chain with T13L, P48T
B15: hirudin mutein M 20 (I29E L30Q) (other)
chain: B1 chain with T13L, I29E, L30Q
B16: hirudin mutein M 16 (I29D L30A) (other)
chain: B1 chain with T13L, I29D, L30A
B17: hirudin mutein M 78 (D53E) (other)
chain: B1 chain with T13L, D53E
B18: hirudin mutein M 81 (F56H) (other)
chain: B1 chain with T13L, F56H
B19: hirudin mutein M 54 (I29H) (other)
chain: B1 chain with T13L, I29H
B20: hirudin mutein M 39 (L15H) (other)
chain: B1 chain with T13L, L15H
B21: hirudin mutein M 22 (I29E L30T) (other)
chain: B1 chain with T13L, I29E, L30T
B22: hirudin mutein M 64 (L30G) (other)
chain: B1 chain with T13L, L30G
B23: hirudin mutein M 47 (V21P) (other)
chain: B1 chain with T13L, V21P
B24: hirudin mutein M 72 (L30T) (other)
chain: B1 chain with T13L, L30T
B25: hirudin mutein M 74 (V40T) (other)
chain: B1 chain with T13L, V40T
B26: hirudin mutein M 55 (I29K) (other)
chain: B1 chain with T13L, I29K
B27: hirudin mutein M 60 (I29T) (other)
chain: B1 chain with T13L, I29T
B28: hirudin mutein M 13 (I29A L30Q) (other)
chain: B1 chain with T13L, I29A, L30Q
B29: hirudin mutein M 68 (L30P) (other)
chain: B1 chain with T13L, L30P
B30: hirudin mutein M 63 (L30E) (other)
chain: B1 chain with T13L, L30E
B31: hirudin mutein M 67 (L30N) (other)
chain: B1 chain with T13L, L30N
B32: hirudin mutein M 15 (I29A L30T) (other)
chain: B1 chain with T13L, I29A, L30T
B33: hirudin mutein M 46 (V21N) (other)
chain: B1 chain with T13L, V21N
B34: hirudin mutein M 65 (L30H) (other)
chain: B1 chain with T13L, L30H
B35: hirudin mutein M 61 (L30A) (other)
chain: B1 chain with T13L, L30A
B36: hirudin mutein M 75 (K47T) (other)
chain: B1 chain with T13L, K47T
B37: hirudin mutein M 38 (L15A) (other)
chain: B1 chain with T13L, L15A
B38: hirudin mutein M 50 (I29A) (other)
chain: B1 chain with T13L, I29A
B39: hirudin mutein M 41 (L15T) (other)
chain: B1 chain with T13L, L15T
B40: hirudin mutein M 53 (I29G) (other)
chain: B1 chain with T13L, I29G
B41: hirudin mutein M 66 (L30K) (other)
chain: B1 chain with T13L, L30K
B42: hirudin mutein M 12 (I29A L30K) (other)
chain: B1 chain with T13L, I29A, L30K
B43: hirudin mutein M 14 (I29A L30R) (other)
chain: B1 chain with T13L, I29A, L30R
B44: hirudin mutein M 79 (D53N) (other)
chain: B1 chain with T13L, D53N
B45: hirudin mutein M 73 (V40A) (other)
chain: B1 chain with T13L, V40A
B46: hirudin mutein M 48 (V21Q) (other)
chain: B1 chain with T13L, V21Q
B47: hirudin mutein M 69 (L30Q) (other)
chain: B1 chain with T13L, L30Q
B48: hirudin mutein M 71 (L30S) (other)
chain: B1 chain with T13L, L30S
B49: hirudin mutein M 56 (I29N) (other)
chain: B1 chain with T13L, I29N
B50: hirudin mutein M 59 (I29S) (other)
chain: B1 chain with T13L, I29S
B51: hirudin mutein M 76 (P48A) (other)
chain: B1 chain with T13L, P48A
B52: hirudin mutein M 58 (I29R) (other)
chain: B1 chain with T13L, I29R

Biological target: thrombin
Test: cell-based or functional assay

In order of rising “Relative Activity (ratio of variant IC50/WT IC50), chromogenic thrombin inhibition assay” value:
1. B10  0.34 ratio
2. B39  0.4 ratio
3. B1  0.6 ratio
4. B20  0.65 ratio
5. B2  0.77 ratio
6. B18  0.8 ratio
7. B33  0.83 ratio
8. B46  0.83 ratio
9. B37  0.9 ratio
10. B3  1 ratio
11. B5  1 ratio
12. B11  1 ratio
13. B12  1 ratio
14. B13  1 ratio
15. B14  1 ratio
16. B17  1 ratio
17. B19  1 ratio
18. B23  1 ratio
19. B24  1 ratio
20. B25  1 ratio
21. B26  1 ratio
22. B27  1 ratio
23. B34  1 ratio
24. B35  1 ratio
25. B38  1 ratio
26. B41  1 ratio
27. B44  1 ratio
28. B45  1 ratio
29. B47  1 ratio
30. B49  1 ratio
31. B50  1 ratio
32. B51  1 ratio
33. B52  1 ratio
34. B8  1.1 ratio
35. B7  1.21 ratio
36. B32  1.21 ratio
37. B9  1.4 ratio
38. B42  1.45 ratio
39. B15  1.52 ratio
40. B31  1.54 ratio
41. B16  1.6 ratio
42. B28  1.6 ratio
43. B21  1.8 ratio
44. B40  1.8 ratio
45. B29  1.83 ratio
46. B48  1.83 ratio
47. B4  2 ratio
48. B6  2 ratio
49. B22  2.2 ratio
50. B36  2.2 ratio
51. B43  2.7 ratio
52. B30  3.33 ratio
